Measurements published in US20220177604A1.
Positions count from the first letter of the chain named.

B1: 18B9His-hIgG1-WT (antibody, V domains shown)
VH: QVQLVESGGGLVQPGGSLRLSCAASGFTFSSYVMSWVRQAPGKGLEWVSSIYSDGSHTYYADSVKGRFTISRDNAKNTLYLQMNSLKSEDTAVYYCAKNLEHYSGSYYYTDPRYDYWGQGTQVTVSS
VL: SSALTQPSALSVTLGQTAKITCQGGSLGSSYVHWYQQKPGQAPVLVIHDGDSRPSGIPERFSGSSSGGTATLTISGAQAEDEDDYYCQSADSSGNAVFGGGTHLTVL
B2: 18B9His-hIgG1-ABDEG (antibody, V domains shown)
VH: B1 VH
VL: B1 VL
B3: 18E2His2-hIgG1-WT (antibody, V domains shown)
VH: QLQLVESGGGLVQPGGSLRLSCAASGFTFSSYVMHWVRQAPGKGLEWVSSIYHDGSHTYYADFVKGRFTISRDNAKNTLYLQMNSLKSEDTAVYYCASGTSYSGSYYYTDPFFGSWGQGTQVTVSS
VL: NFMLTQPSALSVTLGQTARITCQGDRLGSRYIHWYQQKPPQAPVLVIHDDDRRPSGIPERFSGSSSGGTATLTISGAQAEDDGDYYCQSADSSGNPVFGGGTHLTVL
B4: 13E4-hIgG1-WT (antibody, V domains shown)
VH: B3 VH with Q1E, H35S
VL: B1 VL with S1H, L4V, S30N, V32A, H33Y, H48Y, G50D, D83G, S93N

Experiments:
[1] = target: human immunoglobulin E (hIgE) (human) (UniProt P01854); test: SPR competition
human immunoglobulin E (hIgE) (human), sequence (P01854 whole entry): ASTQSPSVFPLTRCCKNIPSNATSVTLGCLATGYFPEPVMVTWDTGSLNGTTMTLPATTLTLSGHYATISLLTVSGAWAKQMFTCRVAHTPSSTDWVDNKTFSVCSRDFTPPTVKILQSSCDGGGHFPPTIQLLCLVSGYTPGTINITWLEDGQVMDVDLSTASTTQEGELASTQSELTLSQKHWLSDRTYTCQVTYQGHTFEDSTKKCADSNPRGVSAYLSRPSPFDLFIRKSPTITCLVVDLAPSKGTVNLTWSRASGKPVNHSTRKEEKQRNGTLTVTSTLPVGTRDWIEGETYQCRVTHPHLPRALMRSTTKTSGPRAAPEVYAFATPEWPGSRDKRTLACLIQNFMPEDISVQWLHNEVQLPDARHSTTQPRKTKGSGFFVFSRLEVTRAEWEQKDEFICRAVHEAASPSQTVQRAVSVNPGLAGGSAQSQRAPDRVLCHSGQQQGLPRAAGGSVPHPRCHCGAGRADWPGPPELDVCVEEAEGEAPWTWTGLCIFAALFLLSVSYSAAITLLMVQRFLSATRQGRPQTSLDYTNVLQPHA

[2] = target: human IgE pre-bound on human basophils (human) (UniProt P01854); test: cell-based or functional assay
human IgE pre-bound on human basophils (human), sequence (P01854 whole entry, chain 1 of 2): as the sequence (P01854 whole entry) above
human IgE pre-bound on human basophils (human), sequence (P12319 26-257, chain 2 of 2, further chain): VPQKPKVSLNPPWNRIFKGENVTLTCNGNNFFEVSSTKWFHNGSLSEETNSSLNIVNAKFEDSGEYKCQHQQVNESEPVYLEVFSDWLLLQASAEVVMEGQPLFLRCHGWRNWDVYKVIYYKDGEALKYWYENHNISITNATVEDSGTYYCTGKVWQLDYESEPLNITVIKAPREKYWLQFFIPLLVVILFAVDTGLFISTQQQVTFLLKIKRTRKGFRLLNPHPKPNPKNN

[3] = target: human immunoglobulin E (hIgE) (human) (UniProt P01854); test: SPR competition, hIgE over hFcεRIα chip, pH 5.5
[4] = target: human immunoglobulin E (hIgE) (human) (UniProt P01854); test: SPR competition, hIgE over hFcεRIα chip, pH 7.4
[5] = target: human immunoglobulin E (hIgE) (human) (UniProt P01854); test: competition ELISA, hIgE to coated hFcεRIα, pH 6
[6] = target: human immunoglobulin E (hIgE) (human) (UniProt P01854); test: SPR competition, hIgE over hFcεRIα chip, pH 7.4; remark: listed apart in the source
[7] = target: human immunoglobulin E (hIgE) (human) (UniProt P01854); test: competition ELISA, hIgE to coated hFcεRIα, pH 7.4
[8] = target: human immunoglobulin E (hIgE) (human) (UniProt P01854); test: SPR competition, hIgE over hFcεRIα chip, pH 6 (text: pH 5.5)
[9] = target: human immunoglobulin E (hIgE) (human) (UniProt P01854); test: flow cytometry: inhibition of human IgE binding to hFcεRIα+ bone-marrow-derived mast cells, residual IgE staining (MFI); unit inferred, x axis in µg/ml
[10] = target: human immunoglobulin E (hIgE) (human) (UniProt P01854); test: flow cytometry: inhibition of human IgE binding to hFcεRIα+ bone-marrow-derived mast cells, residual IgE staining (MFI); table head on the sheet reads EC50, the text calls the values IC50; no unit in the table, x axis in µg/ml
[11] = target: human immunoglobulin E (hIgE) (human) (UniProt P01854); test: competition ELISA
[12] = target: human immunoglobulin E (hIgE) (human) (UniProt P01854); test: SPR competition, hIgE + mAb over hFcεRIα chip, pH 7.4
[13] = target: human immunoglobulin E (hIgE) (human) (UniProt P01854); test: competition ELISA, biotin-hIgE to coated hFcεRIα, pH 6
[14] = target: human immunoglobulin E (hIgE) (human) (UniProt P01854); test: competition ELISA, biotin-hIgE to coated hFcεRIα, pH 7.4
[15] = target: human immunoglobulin E (hIgE) (human) (UniProt P01854); test: SPR competition, hIgE + mAb over hFcεRIα chip, pH 6 (text: pH 5.5)

| Binder | ratio between IC50 at pH5.5 and pH 7.4 [1] | % of activated basophils (CCR3+CD63+) [2] [%] | IC50 [3] [µg/mL] | IC50 [4] [µg/mL] | IC50 [5] [µg/mL] | IC50 [6] [µg/mL] | IC50 [7] [µg/mL] | IC50 [8] [µg/mL] | IC50 [9] [µg/mL] | IC50 [10] [µg/mL] | further results |
| --- | --- | --- | --- | --- | --- | --- | --- | --- | --- | --- | --- |
| B1 | 5.4 | 32 | 4.06 | 0.749 | 3.02 | 2.7 | 0.19 | 58.5 | 3.89 |  | % CD63+ basophils at 20 µg/mL [2]: 12.6%; % CD63+ basophils at 100 µg/mL [2]: 37%; SI (Stimulation Index) at 20 µg/mL [2]: 5.48; SI (Stimulation Index) at 100 µg/mL [2]: 16.1 |
| B2 |  | 29 |  |  | 2.55 | 2.9 | 0.13 | 52.9 | 4.16 |  |  |
| B3 | 6.3 | 5 | 9.86 | 1.56 | 77.2 | 6 | 2.48 | 6310 |  | 25.7 | fold reduction of affinity at pH 7.4 against the WT clone [1]: 2.5 fold |
| B4 |  | 18 |  |  | 0.0114 | 2.3 | 0.00681 | 2.5 |  | 1.44 | Ratio pH 6/7.4 (IC50) [1]: 1; Ratio pH 6/7.4 (IC50) [11]: 1.2; IC50 [12]: 1.62 nM; IC50 [13]: 12.9 nM; IC50 [14]: 10.3 nM; IC50 [15]: 1.54 nM |
